According to paper PMC3150272, “Crystal Structure of Reovirus Attachment Protein σ1 in Complex with Sialylated Oligosaccharides” (PLoS Pathogens, 2011):

Target: the molecule itself
Assay: crystal structure; crystals grown in 15% PEG200, 0.1 M MES pH 6.5; space group P2(1)2(1)2, one trimer in the asymmetric unit; soaked with 10 mM α-2,3-sialyllactose, α-2,6-sialyllactose or α-2,8-disialyllactose

B1: reovirus type 3 Dearing (T3D) attachment protein σ1, body and head domains (residues 170-455), Ile249 (domain or fragment)
chain: VTSAGAPLSIRNNRMTMGLNDGLTLSGNNLAIRLPGNTGLNIQNGGLQFRFNTDQFQIVNNNLTLKTTVFDSINSRIGAIEQSYVASAVTPLRLNSSTKVLDMLIDSSTLEINSSGQLTVRSTSPNLRYPIADVSGGIGMSPNYRFRQSMWIGIVSYSGSGLNWRVQVNSDIFIVDDYIHICLPAFDGFSIADGGDLSLNFVTGLLPPLLTGDTEPAFHNDVVTYGAQTVAIGLSSGGAPQYMSKNLWVEQWQDGVLRLRVEGGGSITHSNSKWPAMTVSYPRSFT
notes: The His6-tagged GCN4 trimerization domain was removed by trypsin before the final purification and crystallization; also called T3D σ1; reovirus attachment protein σ1; source: E. coli Rosetta 2 DE3, purified (Ni-IMAC, on-column trypsin digestion, Superdex-200 SEC); not shown: His6, N-terminal, cleaved; GCN4 trimerization domain (modified GCN4 leucine zipper), N-terminal, cleaved
stoichiometry N: 3
